# Data: patent US20110150888A1 (Amgen, published 2011)
# T1: human hepcidin (mature, 25 amino acids) (human, mono-biotinylated in the ELISAs and on the KinExA beads (site not stated); unlabelled in solution and on the BIAcore chip)
# T1 construct: the form is named in each assay field; also called rhuHepc; rhHepc
# T1 peptide: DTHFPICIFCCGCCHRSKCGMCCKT
# Assays:
# [1] = target: T1, human hepcidin (mature, 25 amino acids); experiment: ELISA, mono-biotinylated human hepcidin on Neutravidin plate, pH 6.0 against pH 7.4
# Experimental: (§1) Differential pH binding of the antibodies listed above in Table 3 was then determined by ELISA. 50 μL of Neutravidin (Pierce) at 8 μg/mL in 1×PBS was coated upon a Nunc Maxisorp 384-well plate, and incubated at 37° C. for 1 hr. After blocking the wells with 0.1% BSA/PBS/0.05% Tween20 for 1 hour at room temperature, plates were washed six times with PBS/0.05% Tween20. 25 μL of mono-biotinylated hepcidin at 50 ng/mL in 0.1% BSA/PBS/0.05% Tween20 was added to the 384-well plate, and incubated at room temperature for 1 hour. The plates were next washed six times with PBS/0.05% Tween20. Starting hepcidin antibody concentrations were normalized to 1 μg/mL for pH 5.5 and 6.0 conditions and to 100 ng/mL for pH 7.4 conditions. The hepcidin antibodies were serially diluted 3-fold in PBS/1% NFDM pH 7.4 and 4-fold in PBS/1% NFDM pH 6.0 and 5.5. The dilutions and titrations were performed in polypropylene 96-well dilution plates, and then were transferred in duplicate to a Neutravidin-coated 384-well plate. The biotinylated hepcidin and antibodies were incubated for 2 hours at room temperature. The plate was next washed six times with PBS/0.05% Tween20. 25 μL it of goat anti-huIgG-horseradish peroxidase at a 1:7000 dilution in 0.1% BSA/PBS/0.05% Tween20 was next added to each well of the assay plate. The plate was finally washed six times in PBS/0.05% Tween20. Enhanced K-Blue 3,3′,5,5′-Tetramethylbenzidine (TMB) Substrate (Neogen) was added and the reaction stopped using 1 M H₃PO₄ after 10 minutes of incubation at room temperature. The absorption was measured at 450 nm on a plate reader. Binding data were analyzed by non-linear regression analysis (sigmoidal dose-response, variable slope) to generate EC₅₀ values using GraphPad Prism® software. […] Double combinations of these mutants were made.
# [2] = target: T1, human hepcidin (mature, 25 amino acids); experiment: ELISA, mono-biotinylated human hepcidin on Neutravidin plate, pH 5.5
# Experimental: as §1
# [3] = target: T1, human hepcidin (mature, 25 amino acids); experiment: ELISA, mono-biotinylated human hepcidin on Neutravidin plate, pH 6.0
# Experimental: as §1
# [4] = target: T1, human hepcidin (mature, 25 amino acids); experiment: ELISA, mono-biotinylated human hepcidin on Neutravidin plate, pH 7.4
# Experimental: as §1
# [5] = target: T1, human hepcidin (mature, 25 amino acids); experiment: antibody at 1:250 dilution; KinExA / BIAcore named in the paragraph
Binder,fold increase in EC50 as the pH was lowered to 6.0 [1] [fold],EC50 [2] [ng/mL],EC50 [3] [ng/mL],EC50 [4] [ng/mL],fold reduction in affinity at pH 6 compared to pH 7.4 [5] [fold]
"15E1 A89H (antibody, V domains shown, Histidine mutant of 15E1, transiently expressed in 293-6E cells; constant regions as in wild-type 15E1; also called A89H (light chain)) VH: QVQLVESGGGVVQPGRSLRLSCAASGFTFSSYGMHWVRQAPGKGLEWVAVIWYAESNKYYADSVKGRFTISRDNSKNTLYLQMNSLRAEDTAVYYCARAQEGIAPDAFDIWGQGTMVTVSS VL: SYELTQPPSVSVSPGQTATITCSGDKLGERYACWYQQRPGQSPVLVIYQDSKRPSGIPERFSGSNSGNTATLTISGTQAMDEADYFCQHWYSSTNVLFGGGTKLTVL",≥ 1.5,12,10.6,5.4,–
"15E1 A99H A107H (antibody, V domains shown, Double histidine mutant of 15E1; constant regions as in wild-type 15E1; also called A107H (heavy chain)/A99H (heavy chain)) VH: QVQLVESGGGVVQPGRSLRLSCAASGFTFSSYGMHWVRQAPGKGLEWVAVIWYAESNKYYADSVKGRFTISRDNSKNTLYLQMNSLRAEDTAVYYCARHQEGIAPDHFDIWGQGTMVTVSS VL: SYELTQPPSVSVSPGQTATITCSGDKLGERYACWYQQRPGQSPVLVIYQDSKRPSGIPERFSGSNSGNTATLTISGTQAMDEADYFCQAWYSSTNVLFGGGTKLTVL",≥ 5.5,16.1,5.5,3,–
"15E1 A107H A89H (antibody, V domains shown, Double histidine mutant of 15E1 (one change in each chain); constant regions as in wild-type 15E1; also called A107H (heavy chain)/A89H (light chain)) VH: QVQLVESGGGVVQPGRSLRLSCAASGFTFSSYGMHWVRQAPGKGLEWVAVIWYAESNKYYADSVKGRFTISRDNSKNTLYLQMNSLRAEDTAVYYCARAQEGIAPDHFDIWGQGTMVTVSS VL: SYELTQPPSVSVSPGQTATITCSGDKLGERYACWYQQRPGQSPVLVIYQDSKRPSGIPERFSGSNSGNTATLTISGTQAMDEADYFCQHWYSSTNVLFGGGTKLTVL",≥ 5.5,–,34.7,6,–
"15E1 W52H (antibody, V domains shown, Histidine mutant of 15E1, transiently expressed in 293-6E cells; constant regions as in wild-type 15E1; also called W52H (heavy chain)) VH: QVQLVESGGGVVQPGRSLRLSCAASGFTFSSYGMHWVRQAPGKGLEWVAVIHYAESNKYYADSVKGRFTISRDNSKNTLYLQMNSLRAEDTAVYYCARAQEGIAPDAFDIWGQGTMVTVSS VL: SYELTQPPSVSVSPGQTATITCSGDKLGERYACWYQQRPGQSPVLVIYQDSKRPSGIPERFSGSNSGNTATLTISGTQAMDEADYFCQAWYSSTNVLFGGGTKLTVL",≥ 1.5,17,5.8,4.5,–
"15E1 N57H A107H (antibody, V domains shown, Double histidine mutant of 15E1; constant regions as in wild-type 15E1; also called A107H (heavy chain)/N57H (heavy chain)) VH: QVQLVESGGGVVQPGRSLRLSCAASGFTFSSYGMHWVRQAPGKGLEWVAVIWYAESHKYYADSVKGRFTISRDNSKNTLYLQMNSLRAEDTAVYYCARAQEGIAPDHFDIWGQGTMVTVSS VL: SYELTQPPSVSVSPGQTATITCSGDKLGERYACWYQQRPGQSPVLVIYQDSKRPSGIPERFSGSNSGNTATLTISGTQAMDEADYFCQAWYSSTNVLFGGGTKLTVL",≥ 5.5,–,75.6,7.3,–
"15E1 L27H (antibody, V domains shown, Histidine mutant of 15E1, transiently expressed in 293-6E cells; constant regions as in wild-type 15E1; also called L27H (light chain)) VH: QVQLVESGGGVVQPGRSLRLSCAASGFTFSSYGMHWVRQAPGKGLEWVAVIWYAESNKYYADSVKGRFTISRDNSKNTLYLQMNSLRAEDTAVYYCARAQEGIAPDAFDIWGQGTMVTVSS VL: SYELTQPPSVSVSPGQTATITCSGDKHGERYACWYQQRPGQSPVLVIYQDSKRPSGIPERFSGSNSGNTATLTISGTQAMDEADYFCQAWYSSTNVLFGGGTKLTVL",≥ 1.5,8,6.5,4.5,–
"15E1 A107H L27H (antibody, V domains shown, Double histidine mutant of 15E1 (one change in each chain); constant regions as in wild-type 15E1; also called A107H (heavy chain)/L27H (light chain)) VH: QVQLVESGGGVVQPGRSLRLSCAASGFTFSSYGMHWVRQAPGKGLEWVAVIWYAESNKYYADSVKGRFTISRDNSKNTLYLQMNSLRAEDTAVYYCARAQEGIAPDHFDIWGQGTMVTVSS VL: SYELTQPPSVSVSPGQTATITCSGDKHGERYACWYQQRPGQSPVLVIYQDSKRPSGIPERFSGSNSGNTATLTISGTQAMDEADYFCQAWYSSTNVLFGGGTKLTVL",≥ 5.5,316,19.3,4.3,–
"antibody 19B8 (antibody, V domains shown, Human antibody from Xenomouse IgG2 or IgG4 mice) VH: QVHLQQWGAGPLKPSETLSLTCAVYNGSFSGYYWSWIRQPPGKGLDWIGDINHSGNTKYNPSLKSRVTISVDTAKNQFSLKLSSVTAADTAVYYCARGDFWSGFDWFDPWGQGTLVTVSS VL: QSALTQPASVSGSPGQSITISCTGTSSNVGTYKLVSWYQQHPGKAPKLMISEVSKRPSGLSNRFSGSKSGNTASLTISGLQAEDEADYYCSSYAGDSTLVFGGGTKLTVL",–,–,–,–,~10
"antibody 20E12 (antibody, V domains shown, Human antibody from Xenomouse IgG2 or IgG4 mice) VH: QVQLQQWGAGPLKPSETLSLTCAVYGGSFSGYYWSWIRQPPGKGLEWIGDINHSGNTKYNPSLKSRVTISVDTSKNQFSLKLNSVTAADTAVYYCARGDFWSGFDWFDPWGQGTLVTVSS VL: QSALTQPASVSGSPGQSITISCTGTSSNVGSYNLVSWYQQHPGKAPKLMLSEVSKRPSGLSSRFSGSKSGDTASLTISGLQAEDEADYYCCSYAGSSTLVFGGGTKLTVL",–,–,–,–,~10

# More lines, now with the values ahead:
fold increase in EC50 as the pH was lowered to 6.0 [1] [fold],EC50 [2] [ng/mL],EC50 [3] [ng/mL],EC50 [4] [ng/mL],fold reduction in affinity at pH 6 compared to pH 7.4 [5] [fold],Binder
–,–,–,–,~10,"antibody 24E4 (antibody, V domains shown, Human antibody from Xenomouse IgG2 or IgG4 mice) VH: QVQLVQSGAEVKEPGASVKVSCKASGYTFTSYGVSWVRQAPGQGLEWMGWISAYNGNTLYAQHLLGRVTMTTDTSTSTAYMELRSLRSDDTAVYYCAREDLGMGDYWGQGTLVTVSS VL: QSVLTQPPSVSGAPGQRVTISCTGSSSNIGAGYGVYWYQQLPGTAPKLLIYGHNNRPSGVPDRFSGSKSDTSASLAITGLQAEDEADYYCQSYDSNLIGSVFGTGTKVTVL"
–,–,–,–,~10,"antibody 22H10 (antibody, V domains shown, Human antibody from Xenomouse IgG2 or IgG4 mice) VH: QVHLQQWGAGPLKPSETLSLTCAVYNGSFSGYYWSWIRQPPGKGLEWIGDINHSGNTKYNPSLKSRVTISVDTAKNQFSLKLSSVTAADTAVYYCARGDFWSGFDWFDPWGQGTLVTVSS VL: QSALTQPASVSGSPGQSITISCTGTSSNVGTYKLVSWYQQHPDKAPKLIISEVSKRPSGLSNRFSGSKSGNTASLTISGLQAEDEVDYYCSSYAGDSTLVFGGGTKLTVL"
–,–,–,–,~10,"antibody 22F12 (antibody, V domains shown, Human antibody from Xenomouse IgG2 or IgG4 mice) VH: QVQLQQWGAGPLKPSETLSLTCAVYGGSFSGYYWSWIRQPPGKGLEWIGDINHSGNTKYNPSLKSRVTISVDTSKNHFSLKLSSVTAADTAVYYCARGDFWSGFDWFDPWGQGTLVTVSS VL: QSALTQPASVSGSPGQSITISCTGTSSNVGSYNLVSWYQKHPGKAPKLMISEVSKRPSGLSNRFSGSKSGNTASLTISGLQAEDEADYYCCSYAGSSTLVFGGGTKLTVL"
–,–,–,–,~10,"antibody 23A11 (antibody, V domains shown, Human antibody from Xenomouse IgG2 or IgG4 mice) VH: QVHLQQWGAGPLKPSETLSLTCAVYNGSFSGYYWSWIRQPPGKGLEWIGDINHSGNTKYNPSLKSRVTISVDTAKNQFSLKLNSVTAADTAVYYCARGDFWSGFDWFDPWGQGTLVTVSS VL: QSALTQPASVSGSPGQSITISCTGTSSNVGTYKLVSWYQQHPGKAPKLMISEVSKRPSGLSNRFSGSKSGNTASLTISGLQAEDEADYYCSSYAGDSTLIVGGGTKLTVL"
